Measurements as given in patent publication US20020150536, “Nucleic acid ligands to integrins” (GILEAD SCIENCES, INC., published 2002).
Positions count from the first letter of the chain named.

B1: 15.34 (ssRNA)
RNA: GGGAGACAAGAAUAAACGCUCAAUCCCACCCUGCCUUGUCUGUUUGAUAGAGACACUGUCCUUUUCGACAGGAGGCUCACAACAGGC
modifications: 2'-F C and U
B2: 15.13 (ssRNA)
RNA: GGGAGACAAGAAUAAACGCUCAAGCGGGAUUUUCCUGAUCAUCCCACUGAUUCGGGGCCUUACUUCGACAGGAGGCUCACAACAGGC
modifications: 2'-F C and U
B3: 7.41 (ssRNA)
RNA: GGGAGACAAGAAUAAACGCUCAAGCGAGCCUAUUGUCUAAGAUGCACCAGGCCUGUUAAGCAUUUCGACAGGAGGCUCACAACAGGC
modifications: 2'-F C and U
B4: 15.43 (ssRNA)
RNA: GGGAGACAAGAAUAAACGCUCAACGCCGUUAUCACGACGUGCGUUCUGGGCGGUACUCGCGCAUUCGACAGGAGGCUCACAACAGGC
modifications: 2'-F C and U
B5: 15.20 (ssRNA)
RNA: GGGAGACAAGAAUAAACGCUCAAUUCAACGCUGUCCAAGGGCUUAUAUGAGCGCAUUAUACCCUUCGACAGGAGGCUCACAACAGGC
modifications: 2'-F C and U
B6: 7.54 (ssRNA)
RNA: B5 RNA with A27G, C35U, A55G
modifications: 2'-F C and U
B7: 7.77 (ssRNA)
RNA: B5 RNA with C31A, C35U, C36G, A38G
modifications: 2'-F C and U
B8: 7.38 (ssRNA)
RNA: B5 RNA with A55G
modifications: 2'-F C and U
B9: 15.53 (ssRNA)
RNA: B5 RNA with A37U, U56G, U57G
modifications: 2'-F C and U
B10: 15.39 (ssRNA)
RNA: GGGAGACAAGAAUAAACGCUCAAUCAAUCUCGGACUAGACUAACGACCUUGGUUGACGCUCAUUCGACAGGAGGCUCACAACAGGC
modifications: 2'-F C and U
B11: 15.19 (ssRNA)
RNA: GGGAGACAAGAAUAAACGCUCAAUGUAGCCGCAUGUCGAGCAGCAAUUCCUGCCAUUGUAGGUUCGACAGGAGGCUCACAACAGGC
modifications: 2'-F C and U
B12: 7.13 (ssRNA)
RNA: B11 RNA with C29U
modifications: 2'-F C and U
B13: 15.5 (ssRNA)
RNA: GGGAGACAAGAAUAAACGCUCAAGCAUUCAAAAUUUGCGAGAACGAAUAGAAGUCCGAGAGCCUUCGACAGGAGGCUCACAACAGGC
modifications: 2'-F C and U
B14: 15.4 (ssRNA)
RNA: GGGAGACAAGAAUAAACGCUCAAUGAUUUCAUGACUUAUGCCGCCGGCAUGACUUCAAUGACGUUCGACAGGAGGCUCACAACAGGC
modifications: 2'-F C and U
B15: 15.3 (17.17) (ssRNA)
RNA: GGGAGACAAGAAUAAACGCUCAAUUCAACGUUGUCCAAGGGCUUAUAUGAGCGGAUUACCCUUCGACAGGAGGCUCACAACAGGC
modifications: 2'-F C and U
B16: 17.1 (ssRNA)
RNA: B15 RNA with U31C, C36A, G49A
modifications: 2'-F C and U
B17: 15.7 (ssRNA)
RNA: B15 RNA with A27U, U31A, C36A
modifications: 2'-F C and U
B18: 15.8 (ssRNA)
RNA: B15 RNA with A27G, U31C, C35U, C36G, U48C
modifications: 2'-F C and U
B19: 15.10 (ssRNA)
RNA: B15 RNA with U31C, C35U
modifications: 2'-F C and U
B20: 15.17 (ssRNA)
RNA: B15 RNA with C36A, U48C, A50G
modifications: 2'-F C and U
B21: 15.14 (ssRNA)
RNA: B15 RNA with G30A
modifications: 2'-F C and U
B22: 17.8 (ssRNA)
RNA: B15 RNA with C36U
modifications: 2'-F C and U
B23: 17.13 (ssRNA)
RNA: B15 RNA with U31C, A50G
modifications: 2'-F C and U
B24: 15.2 (ssRNA)
RNA: B15 RNA with C36A
modifications: 2'-F C and U
B25: 15.18 (ssRNA)
RNA: GGGAGACAAGAAUAAACGCUCAAUUCAACGCUGUGAAGGGCUUAUAUGAGCGGAUUACCCUUCGACAGGAGGCUCACAACAGGC
modifications: 2'-F C and U
B26: 17.11 (ssRNA)
RNA: B25 RNA with A27U, G53A
modifications: 2'-F C and U
B27: 17.2 (ssRNA)
RNA: B25 RNA with A27U
modifications: 2'-F C and U
B28: 15.50 (17.3) (ssRNA)
RNA: B25 RNA with A27G, U47C
modifications: 2'-F C and U
B29: 15.46 (17.20) (ssRNA)
RNA: B25 RNA with A27G
modifications: 2'-F C and U
B30: 17.7 (ssRNA)
RNA: B25 RNA with A27U, U47C
modifications: 2'-F C and U
B31: 15.21 (ssRNA)
RNA: GGGAGACAAGAAUAAACGCUCAACGGUGAAGACCUCUAUUAACAACAUGACCUGCCUGCGUUGUUCGACAGGAGGCUCACAACAGGC
modifications: 2'-F C and U
B32: 17.5 (ssRNA)
RNA: GGGAGACAAGAAUAAACGCUCAAUUCGACGCUGUGAAGGGCUUAUAUGAGCGGAUACACCCUUCGACAGGAGGCUCACAACAGGC
modifications: 2'-F C and U
B33: 7.5 (ssRNA)
RNA: GGGAGACAAGAAUAAACGCUCAAGGUAGUAAAUGGACUCCUGCCAUCCAAUACUAUCUCUGAGUUCGACAGGAGGCUCACAACAGGC
modifications: 2'-F C and U
B34: 7.66 (ssRNA)
RNA: GGGAGACAAGAAUAAACGCUCAAGUGAACCGAUAAGCGAAAGUAGUACCCCUGCUUGACUACUUUCGACAGGAGGCUCACAACAGGC
modifications: 2'-F C and U

The binders below were run against integrin alphaV beta3 (Homo sapiens, UniProt P06756;P06756;P05106 P06756:31-889,P06756:891-1048,P05106:27-788) (assay: microtiter plate, streptavidin-AP; Mg2+, Ca2+, Mn2+, pH 7.5, 37 C). Settings: label: 5'-biotin.
Method: The affinity of individual RNAs and RNA pools for αᵥβ₃ was determined by titration of biotinylated RNA with a small quantity of immobilized integrin. Bound RNA was detected through the biotin moiety. Biotinylated RNA was prepared according to standard transcription protocols, but including a 5-fold molar excess of a 5′-biotin-modified GMP over GTP in the reaction mixture. Methods for synthesizing 5′-biotin-modified guanosine nucleotides are described in WO 98/30720 entitled “Bioconjugation of Oligonucleotides,” specifically incorporated herein by reference in its entirety. The modified nucleotide is incorporated at the 5′ end of the transcript in proportion to its representation in the guanosine pool. 96-well microtiter plates (Immulon 2, Dynatech Laboratories, Inc., Chantilly, Va.) were coated overnight at 4° C. with 100 μL purified αᵥβ₃ at a concentration of 0.25 μg/mL in 20 mM TrisHCl, pH 7.5, 150 mM NaCl, 1 mM MgCl₂, 2 mM CaCl₂, 0.1 mM MnCl₂. Coating concentrations were 0.8 μg/mL for αIIbβ₃ and 0.3 μg/mL for αᵥβ₅. Wells were blocked with 200 μL of a solution of 3% BSA in the same buffer (1 hour at room temperature) then rinsed 3 times with 200 μL binding buffer (50 mM TrisHCl, pH 7.5, 137 mM NaCl, 2.7 mM KCl, 1 mM MgCl₂, 2 mM CaCl₂, 0.1 mM MnCl₂, 0.1% BSA). Individual RNAs or RNA pools were denatured briefly at 93° C. in binding buffer without divalent cations or BSA, then serially diluted in the same buffer. 50 μL binding buffer containing 2×-concentrations of divalent cations and BSA were added to each well, followed by 50 μL RNA dilution. RNAs were allowed to incubate in the integrin-coated wells at 37° C. for 30-60 minutes. Unbound RNAs were removed by 3 rapid washes in binding buffer. To detect bound RNA, 100 μL of a 1:2500 dilution in binding buffer of streptavidin-alkaline phosphatase conjugate (Calbiochem) were incubated in each well for 30 minutes at room temperature, followed by three rapid washes, as above. 100 μL/well p-nitrophenyl phosphate (Sigma Chemical Co., St. Louis, Mo.) was added and incubated at room temperature for 30 minutes. Color development was monitored by absorbance at 405 nm.

Sequence of integrin alphaV beta3 (P06756 31-889, chain 1 of 3): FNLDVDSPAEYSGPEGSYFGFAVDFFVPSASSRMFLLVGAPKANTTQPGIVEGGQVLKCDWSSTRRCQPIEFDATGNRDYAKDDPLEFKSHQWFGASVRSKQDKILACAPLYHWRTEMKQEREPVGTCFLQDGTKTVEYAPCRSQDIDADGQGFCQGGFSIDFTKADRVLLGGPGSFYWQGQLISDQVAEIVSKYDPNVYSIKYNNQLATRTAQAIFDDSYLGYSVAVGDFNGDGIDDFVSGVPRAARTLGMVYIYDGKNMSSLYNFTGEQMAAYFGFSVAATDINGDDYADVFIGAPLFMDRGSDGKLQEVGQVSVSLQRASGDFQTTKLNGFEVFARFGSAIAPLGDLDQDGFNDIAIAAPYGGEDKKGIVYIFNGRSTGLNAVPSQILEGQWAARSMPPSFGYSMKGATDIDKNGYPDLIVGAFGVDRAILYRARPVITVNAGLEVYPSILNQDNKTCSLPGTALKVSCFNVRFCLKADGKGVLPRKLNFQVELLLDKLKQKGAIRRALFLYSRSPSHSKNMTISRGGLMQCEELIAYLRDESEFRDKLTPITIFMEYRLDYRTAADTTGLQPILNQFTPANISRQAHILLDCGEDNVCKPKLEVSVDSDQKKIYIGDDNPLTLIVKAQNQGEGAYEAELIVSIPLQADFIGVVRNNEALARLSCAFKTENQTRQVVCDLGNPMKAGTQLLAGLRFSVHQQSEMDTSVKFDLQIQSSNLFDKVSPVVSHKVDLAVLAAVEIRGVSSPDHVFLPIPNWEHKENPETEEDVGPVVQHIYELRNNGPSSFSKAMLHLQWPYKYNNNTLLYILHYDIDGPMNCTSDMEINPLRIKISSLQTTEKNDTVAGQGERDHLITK
Sequence of integrin alphaV beta3 (P06756 891-1048, chain 2 of 3): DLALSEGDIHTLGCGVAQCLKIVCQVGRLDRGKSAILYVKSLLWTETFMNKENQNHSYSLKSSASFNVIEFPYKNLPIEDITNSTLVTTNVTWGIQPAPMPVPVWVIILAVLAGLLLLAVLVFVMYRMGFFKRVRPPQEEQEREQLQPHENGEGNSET
Sequence of integrin alphaV beta3 (P05106 27-788, chain 3 of 3): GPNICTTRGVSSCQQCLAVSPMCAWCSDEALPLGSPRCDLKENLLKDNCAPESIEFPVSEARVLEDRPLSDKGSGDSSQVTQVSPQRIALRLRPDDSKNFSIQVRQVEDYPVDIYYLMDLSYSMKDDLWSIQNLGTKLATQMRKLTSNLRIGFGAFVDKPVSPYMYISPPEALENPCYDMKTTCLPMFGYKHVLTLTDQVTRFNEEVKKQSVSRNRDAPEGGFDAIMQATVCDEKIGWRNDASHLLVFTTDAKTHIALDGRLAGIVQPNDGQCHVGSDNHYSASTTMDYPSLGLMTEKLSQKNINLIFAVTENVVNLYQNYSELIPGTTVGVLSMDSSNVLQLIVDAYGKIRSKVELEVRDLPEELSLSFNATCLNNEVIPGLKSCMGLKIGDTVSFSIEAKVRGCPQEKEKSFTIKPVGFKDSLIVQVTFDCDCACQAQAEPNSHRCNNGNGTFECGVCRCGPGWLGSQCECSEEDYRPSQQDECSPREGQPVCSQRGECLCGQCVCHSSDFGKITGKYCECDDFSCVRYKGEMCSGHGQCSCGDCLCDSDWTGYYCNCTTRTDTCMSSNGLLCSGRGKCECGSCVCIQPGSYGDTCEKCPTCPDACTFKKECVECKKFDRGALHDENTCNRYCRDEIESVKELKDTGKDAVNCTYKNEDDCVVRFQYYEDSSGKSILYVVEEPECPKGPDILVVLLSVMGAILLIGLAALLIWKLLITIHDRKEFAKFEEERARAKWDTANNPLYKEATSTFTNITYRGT

Point of comparison: B10, Kd 410 nM. Against it:
- B1 — 2.2-fold lower, 190 nM
- B2 — 1.9-fold higher, 790 nM
- B3 — higher, > 1000 nM
- B4 — 9.1-fold lower, 45 nM
- B5 — 20-fold lower, 20 nM
- B6 — 1.8-fold lower, 230 nM
- B7 — 1.9-fold higher, 770 nM
- B8 — 8.4-fold lower, 49 nM
- B9 — 5.9-fold lower, 70 nM
- B11 — 1.9-fold higher, 770 nM
- B12 — higher, > 1000 nM
- B13 — 9.8-fold higher, 4000 nM
- B14 — 4.9-fold higher, 2000 nM
- B15 — 51-fold lower, 8 nM
- B16 — within 1.5-fold, 380 nM
- B17 — 82-fold lower, 5 nM
- B18 — 82-fold lower, 5 nM
- B19 — 20-fold lower, 20 nM
- B20 — 100-fold lower, 4 nM
- B21 — 68-fold lower, 6 nM
- B22 — 23-fold lower, 18 nM
- B23 — 41-fold lower, 10 nM
- B24 — 68-fold lower, 6 nM
- B25 — 200-fold lower, 2 nM
- B26 — 100-fold lower, 4 nM
- B27 — 200-fold lower, 2 nM
- B28 — 14-fold lower, 30 nM
- B29 — 10-fold lower, 40 nM
- B30 — 68-fold lower, 6 nM
- B31 — 2-fold lower, 200 nM
- B32 — 82-fold lower, 5 nM
- B33 — higher, > 1000 nM
- B34 — higher, > 1000 nM
